Test [1] has as its target T1, recombinant human IL-1β (human, UniProt P01584 117-269). The test can be described thus: cell-based or functional assay.
A further test addresses T2, recombinant canine IL-1β (canine, UniProt Q28292 115-266, limits assumed).
T2 construct: also called Canine rIL-1β
T2 sequence (looked up): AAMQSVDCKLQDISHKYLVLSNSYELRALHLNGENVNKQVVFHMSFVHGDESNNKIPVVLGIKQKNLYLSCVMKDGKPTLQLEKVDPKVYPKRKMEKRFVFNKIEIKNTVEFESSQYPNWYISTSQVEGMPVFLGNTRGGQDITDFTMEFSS
The test can be described thus: cross-reactivity table (Table 2), direct ELISA; text: no detectable binding to canine IL-1β. As to the method: Recombinant human IL-1β 1 mg/ml was diluted with the coating buffer to a final concentration of 2 μg/ml. 50 μl was added to the designated wells. Canine IL-1β, porcine/swine IL-1β, guinea pig IL-1β, human IL-1ra and human IL-6 were diluted in the coating buffer and added to distinct wells on the plates. Plates were incubated overnight at 4° C. […] The bound scFvs and control antibodies were detected with Protein L-Peroxidase L-HRP (1:3000), rabbit anti-goat HRP (1:5000) and streptavidin HRP (1:3000).
(In general: ELISA stands for enzyme-linked immunosorbent assay.)

For the next test, the target named is T3, Rhesus monkey rIL-1β (rhesus monkey, UniProt P48090 117-269).
T3 construct: also called rhesus macaque IL-1β; rhesus IL-1β
The test can be described thus: cross-reactivity table (direct ELISA). The procedure:
(§1) Plate wells were coated with each protein and incubated overnight at 4° C.

A further test concerns the target T4, Cynomolgus rIL-1β (cynomolgus, UniProt P79182 117-268, limits assumed).
T4 construct: also called cynomolgus IL-1β
The test can be described thus: cross-reactivity table (direct ELISA). The procedure: as §1

For test [2], the target named is T1, recombinant human IL-1β. The test can be described thus: cell-based or functional assay. The source holds these as a separate data set.
For test [3], the target named is T1, recombinant human IL-1β. The test can be described thus: Kinetic Exclusion Assay (KinExA, Sapidyne). From the text:
Kd is a specific type of equilibrium constant that measures the propensity of a larger object to separate (dissociate) reversibly into smaller components. A Kd analysis requires immobilization of one interaction partner (the […] binding partner) to a solid phase which is then used as a probe to capture the other interaction partner. For each experiment, one of the binding partners is titrated in a background of the captured binding partner (CBP) and allowed to reach equilibrium. The solutions are then briefly exposed to the solid phase and a portion of free CBP is captured. The captured CBP is then labelled with a fluorescent secondary molecule. The signals generated from CBP are used to calculate the Kd value which is directly proportional to the concentration of free CBP in the equilibrated sample.
(In general: A kinetic exclusion assay measures how much of one partner remains free in solution.)

For test [4], the target named is T1, recombinant human IL-1β. The test can be described thus: cell-based or functional assay. The source holds these as a separate data set.

T4 sequence (P79182 117-268 limits assumed): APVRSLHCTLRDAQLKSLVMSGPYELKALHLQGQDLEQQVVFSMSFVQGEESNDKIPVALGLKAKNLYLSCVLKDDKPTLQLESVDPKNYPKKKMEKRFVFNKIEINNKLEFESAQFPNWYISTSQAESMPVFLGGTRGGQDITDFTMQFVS
T3 sequence (P48090 117-269 limits assumed): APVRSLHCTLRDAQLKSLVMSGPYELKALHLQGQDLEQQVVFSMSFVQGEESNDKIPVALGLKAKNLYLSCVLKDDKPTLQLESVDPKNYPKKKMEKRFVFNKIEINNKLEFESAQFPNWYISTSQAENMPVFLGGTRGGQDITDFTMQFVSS

B1: DLX-2323 (scFv)
scFv: EIVMTQSPSTLSASVGDRVIITCQASQSIDNWLSWYQQKPGKAPKLLIYRASTLASGVPSRFSGSGSGAEFTLTISSLQPDDFATYYCQNTGGGVSIAFGQGTKLTVLGGGGGSGGGGSGGGGSGGGGSEVQLVESGGGLVQPGGSLRLSCTASGFSLSSAAMAWVRQAPGKGLEWVGIIYDSASTYYASWAKGRFTISRDTSKNTVYLQMNSLRAEDTAVYYCARERAIFSGDFVLWGQGTLVTVSS
notes: Humanized single chain antibody fragment expressed in E. coli (inclusion bodies)
As a reminder, the Kd is the equilibrium constant for the complex coming apart. Broadly, the koff is the rate constant with which the complex falls apart. By kon is commonly meant the second-order rate constant of association. As for B1, the “IC50 (column head of Table 2)” value in the test with recombinant human IL-1β [1] was 2 to 3 pM. Further, the binding result with recombinant canine IL-1β is “no binding”. Besides, in the test with Rhesus monkey rIL-1β, the binding result is given as “binds”. The binding result with Cynomolgus rIL-1β is given as “binds”. In the test with recombinant human IL-1β [2], the “IC50, inhibition of IL-1β-induced IL-6 release from normal human dermal fibroblasts (IL-6 ELISA)” value was 3 pM and the “potency relative to IL-1RA, inhibition of IL-1β-induced IL-6 release” value was found to be 10 fold. In the test with recombinant human IL-1β [3], the equilibrium dissociation constant (Kd) worked out at 0.756 pM, the koff was 5.7e-06 s⁻¹ and the kon came out at 7.55e+06 M⁻¹ s⁻¹.

B2: canakinumab (antibody, V domains shown)
VH: QVQLVESGGGVVQPGRSLRLSCAASGFTFSVYGMNWVRQAPGKGLEWVAIIWYDGDNQYYADSVKGRFTISRDNSKNTLYLQMNGLRAEDTAVYYCARDLRTGPFDYWGQGTLVTVSS
VL: EIVLTQSPDFQSVTPKEKVTITCRASQSIGSSLHWYQQKPDQSPKLLIKYASQSFSGVPSRFSGSGSGTDFTLTINSLEAEDAAAYYCHQSSSLPFTFGPGTKVDIKR
In the case of B2, the “IC50 (read off the curve), inhibition of rhIL-1β-induced IL-6 release from human dermal fibroblasts” value with recombinant human IL-1β [4] is about 60 pM.
